# Data: publication PMC7616792, “The structural mechanism of dimeric DONSON in replicative helicase activation” (Molecular cell, 2023)
# Substitutions are numbered along the chain they refer to. Names and notes keep the numbering of the source.
# T1: recombinant FLAG5, His6-tagged GINS (Psf1, Psf2, Psf3 and Sld5) (Xenopus laevis, UniProt Q7ZT47 1-196; Q7ZT46 1-185; Q7ZT01 1-210; Q7ZT48 1-221)
# T1 construct: Psf1, subunit of GINS, Xenopus laevis; Psf2, subunit of GINS, Xenopus laevis; Psf3, subunit of GINS, Xenopus laevis; Sld5, subunit of GINS, Xenopus laevis; also called recombinant GINS; FLAG-tagged GINS; copies: + + +
# T1 sequence (looked up) 1: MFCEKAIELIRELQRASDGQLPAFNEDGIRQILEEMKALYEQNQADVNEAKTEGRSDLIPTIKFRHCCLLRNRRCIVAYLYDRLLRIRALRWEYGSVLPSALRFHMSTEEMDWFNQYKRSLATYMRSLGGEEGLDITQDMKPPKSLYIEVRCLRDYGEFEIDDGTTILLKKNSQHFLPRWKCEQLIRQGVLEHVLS
# T1 sequence (looked up) 2: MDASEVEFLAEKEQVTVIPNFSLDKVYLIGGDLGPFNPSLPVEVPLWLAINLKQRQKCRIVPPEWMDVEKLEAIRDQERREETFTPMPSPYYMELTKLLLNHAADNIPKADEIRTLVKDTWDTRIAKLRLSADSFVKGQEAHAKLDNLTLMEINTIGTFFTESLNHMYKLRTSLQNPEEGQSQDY
# T1 sequence (looked up) 3: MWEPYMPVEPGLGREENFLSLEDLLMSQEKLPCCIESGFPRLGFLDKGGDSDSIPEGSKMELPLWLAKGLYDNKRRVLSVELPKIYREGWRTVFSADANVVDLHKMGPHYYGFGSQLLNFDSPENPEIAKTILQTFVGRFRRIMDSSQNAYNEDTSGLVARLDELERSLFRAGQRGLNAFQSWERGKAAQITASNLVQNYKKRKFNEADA
# T1 sequence (looked up) 4: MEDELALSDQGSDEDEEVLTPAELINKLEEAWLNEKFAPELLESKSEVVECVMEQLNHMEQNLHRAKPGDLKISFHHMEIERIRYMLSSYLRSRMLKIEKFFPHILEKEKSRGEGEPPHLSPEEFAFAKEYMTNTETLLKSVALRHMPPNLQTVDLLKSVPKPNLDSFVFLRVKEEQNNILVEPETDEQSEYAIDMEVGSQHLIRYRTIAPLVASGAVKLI
# B1: DONSONΔ24 (truncation of residues 1–24) (domain or fragment, Xenopus laevis, UniProt Q5U4U4 25-579, looked up)
# chain: RSRSEASKTGLSPFSPGDVIKRVPGLRPFSPGPNKGAGVKRRNPFASLENTVCSPVKRRAETVAEYGAASLEPRALSAVRPSCLGQDSPEPPQFNSVEDVIWGDPLAADADPLVKTESPEKPAPACEIPKGSVTFPADWSLKTRLLFTSSHSFSWADHLKAQEEAQGLVMQCRATAVNLPHSIQEPKLSTDLRCAFQQSLVHWIHPSLPWVQLFPRIGVDRKMAGKNTPWSQDESLQQVLMSEWALSFTSLYNLLKAKLCPYFYVCTYQFTVLFRAAGLAGSDVITAVMSPTTRGLREAMKNEGITFSQPLVEDDTGKKQKKPEAASQGDINPEKENGTAEADEASDESDEDESFSWLEEMGVEDKIKKPDSISIKLRKEKNEVKLDHKPESVVLVKGTNTFTLLNFLINCKSIVAAAGLQAGLPPTLLSPVAFRGATMHALKARSVNVKTRVNSGYKDQFSLEITGPIMPHSLHSLTMLLQSAQRGSFSAGLYTHEPTAVFNTPIHSQAVKEISADLQNCGLHPCTVEQLTQVNELGKLSLRHLEMTDYRYTWK
# notes: DONSON, Xenopus laevis, without residues 1-24; See the note of m17 on a possible Myc tag; also called DONSON D24 (D1-24); pET28a-DONSON Δ24 (1-24 removed); source: E. coli BL21 (DE3), purified (Ni-NTA)
# B2: DONSON ΔD1 (Δ1-155) (domain or fragment, Xenopus laevis, UniProt Q5U4U4 156-579, looked up)
# chain: SVTFPADWSLKTRLLFTSSHSFSWADHLKAQEEAQGLVMQCRATAVNLPHSIQEPKLSTDLRCAFQQSLVHWIHPSLPWVQLFPRIGVDRKMAGKNTPWSQDESLQQVLMSEWALSFTSLYNLLKAKLCPYFYVCTYQFTVLFRAAGLAGSDVITAVMSPTTRGLREAMKNEGITFSQPLVEDDTGKKQKKPEAASQGDINPEKENGTAEADEASDESDEDESFSWLEEMGVEDKIKKPDSISIKLRKEKNEVKLDHKPESVVLVKGTNTFTLLNFLINCKSIVAAAGLQAGLPPTLLSPVAFRGATMHALKARSVNVKTRVNSGYKDQFSLEITGPIMPHSLHSLTMLLQSAQRGSFSAGLYTHEPTAVFNTPIHSQAVKEISADLQNCGLHPCTVEQLTQVNELGKLSLRHLEMTDYRYTWK
# notes: DONSON, Xenopus laevis, without residues 1-155 (the unstructured D1 loop); also called DONSON DD1 (D1-155); pET28a-DONSON ΔD1; source: recombinant (pET28a vector)
# B3: recombinant Xenopus laevis DONSON WT (natural protein)
# chain: MAELLPGYSPSFKKPSEILRLSRRRSRSEASKTGLSPFSPGDVIKRVPGLRPFSPGPNKGAGVKRRNPFASLENTVCSPVKRRAETVAEYGAASLEPRALSAVRPSCLGQDSPEPPQFNSVEDVIWGDPLAADADPLVKTESPEKPAPACEIPKGSVTFPADWSLKTRLLFTSSHSFSWADHLKAQEEAQGLVMQCRATAVNLPHSIQEPKLSTDLRCAFQQSLVHWIHPSLPWVQLFPRIGVDRKMAGKNTPWSQDESLQQVLMSEWALSFTSLYNLLKAKLCPYFYVCTYQFTVLFRAAGLAGSDVITAVMSPTTRGLREAMKNEGITFSQPLVEDDTGKKQKKPEAASQGDINPEKENGTAEADEASDESDEDESFSWLEEMGVEDKIKKPDSISIKLRKEKNEVKLDHKPESVVLVKGTNTFTLLNFLINCKSIVAAAGLQAGLPPTLLSPVAFRGATMHALKARSVNVKTRVNSGYKDQFSLEITGPIMPHSLHSLTMLLQSAQRGSFSAGLYTHEPTAVFNTPIHSQAVKEISADLQNCGLHPCTVEQLTQVNELGKLSLRHLEMTDYRYTWK
# notes: DONSON (Downstream neighbor of Son), Xenopus laevis; also called WT DONSON; WT recombinant DONSON; source: E. coli BL21 (DE3), purified (Ni-NTA)
# B4: DONSON S437A (natural protein, Xenopus laevis)
# chain: B3 chain with S437A
# notes: DONSON, Xenopus laevis; also called DONSON Ser437Ala; pET28a-DONSON-S437A; source: E. coli BL21 (DE3), purified (Ni-NTA)
# B5: DONSON DEWS (D374A; E377A; W381A; S437A) (natural protein, Xenopus laevis)
# chain: B3 chain with D374A, E377A, W381A, S437A
# notes: DONSON, Xenopus laevis; also called pET28a-DONSON-DEWS; source: E. coli BL21 (DE3), purified (Ni-NTA)
# B6: DONSON DEW (D374A; E377A; W381A) (natural protein, Xenopus laevis)
# chain: B3 chain with D374A, E377A, W381A
# notes: DONSON, Xenopus laevis; also called pET28a-DONSON-DEW; source: E. coli BL21 (DE3), purified (Ni-NTA)
# B7: DONSON 3A (V473A; R476A; Y481A) (natural protein, Xenopus laevis)
# chain: B3 chain with V473A, R476A, Y481A
# notes: DONSON, Xenopus laevis; also called pET28a-DONSON-3A; source: E. coli BL21 (DE3), purified (Ni-NTA)
# Target: DONSON WM (W234L; M463T) (Xenopus laevis) (UniProt Q5U4U4)
# Assay: mass photometry; protein concentration varied (Figure S7); DONSON WM at 20 nM; monomer to dimer
# Details: not given
row,stoichiometry N,Molecule
1,2,DONSON WM (W234L; M463T) (from UniProt Q5U4U4 1-579) (natural protein)

# Target: the molecule itself
# Assay: mass photometry; recombinant DONSON proteins diluted ten-fold into Dulbecco PBS to a final concentration of 3 to 5 nM; TwoMP (Refeyn); monomer to dimer
# Details: not given
row,Molecule,stoichiometry N
1,B1,2
2,B2,2
3,B3,2
4,B4,2
5,B5,2
6,B6,2
7,B7,2

# Target: T1, recombinant FLAG5, His6-tagged GINS …
# Assay: co-IP; recombinant FLAG-tagged GINS immunoprecipitated after incubation with recombinant DONSON variants; blot with an anti-DONSON antibody (Figure S5B)
# Details: both partners purified
row,binding result,Molecule
1,binds,B3
2,binds,B7
